The assay has as its target T1, recombinant hMUC1-C (rhMUC1-C) protein (human, UniProt P15941 961-1152).
T1 construct: Expressed in E. coli Rosetta (not glycosylated), purified from inclusion bodies in 8 M urea over Ni-NTA; also called hMUC1-C terminal protein; not shown: C-terminal His-tag of vector pET-22b
T1 sequence: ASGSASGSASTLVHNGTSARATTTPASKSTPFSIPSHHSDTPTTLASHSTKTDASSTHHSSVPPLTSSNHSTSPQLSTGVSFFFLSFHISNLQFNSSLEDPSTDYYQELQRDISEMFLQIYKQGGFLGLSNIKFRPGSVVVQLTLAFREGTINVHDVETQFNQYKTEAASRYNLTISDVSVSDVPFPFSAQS
The assay can be described thus: ELISA of hybridoma culture supernatant on coated rhMUC1-C. Here is the method: The total amount of rhMUC1-C-specific IgG was measured by ELISA. A 96-well immunoplate was coated with 10 […] of rhMUC1-C protein (Example 2) and blocked with bovine serum albumin (BSA) in PBS-T (PBS containing 0.1% (v/v) Tween-20). The mouse serum immunized in Example 5, hybridoma cell culture supernatant, or purified antibody was diluted with PBS-T and cultured at room temperature for 2 hours. The plate was washed 3 times with PBS-T and cultured with a goat anti-mouse IgG HRP-conjugated secondary antibody for 1 hour. The plate was developed using TMB substrate solutions A and B (1:1 ratio) (Kirkegaard and Perry Laboratories, Gaithersburg, Md., USA), the absorbance was measured at 450 nm using a Spectra Max 250 microplate reader (Molecular Devices, Sunnyvale, USA), and a colorimetric assay was performed.
The spleen cells from mice immunized with rhMUC1-C protein in Example 5 were fused with SP2/0 myeloma cells (ATCC) using polyethylene glycol (PEG, Sigma-Aldrich). The fused cells were cultured and selected as a hypoxanthine-aminopterin-thymidine (HAT, Sigma-Aldrich) medium. The culture supernatant of the selected hybridoma cells was subjected to testing for binding to rhMUC1-C protein through ELISA and hybridoma cells, which were positive for binding, i.e., produced rhMUC1-C protein-specific antibody, were screened. […]
A general note: In an ELISA, binding on a coated surface is turned into a signal by an enzyme label.

B1: anti-hMUC1 monoclonal antibody purified from hybridoma hMUC1-1H7 (KCLRF-BP-00395) (antibody, V domains shown)
VH: EVQLQQSGAELAKPGASVKMSCKVSGYTFTSYWMHWVKQRPGQGLEWIGYINPGTGYIEYNQKFKDKATLTADKSSSTAYMQLSSLTSEDSAVYYCASSTAPFDYWGQGTTLTVSS
VL: DIVITQSPSSMYASLGERVTITCKASQDIKSYLSWYQQKPWKSPKTLIYYATRLADGVPSRFSGSGSGQDYSLTISSLESDDTATYYCLQYDESPYTFGGGTKLEIKR
notes: also called anti-hMUC1 antibody; anti-hMUC1-C mouse antibody (1H7)
Turning to B1, the binding result is listed as “binds”.

For the origin of these results see patent publication US20210115153A1 (PEPTRON, published 2021).
